# Article PMC3315804 (Molecular Biology of the Cell, 2012)
# T1: Y14D-Cav-1-YFP (phosphomimicking mutant) (human, UniProt Q03135 1-178, Y14D)
# T1 sequence: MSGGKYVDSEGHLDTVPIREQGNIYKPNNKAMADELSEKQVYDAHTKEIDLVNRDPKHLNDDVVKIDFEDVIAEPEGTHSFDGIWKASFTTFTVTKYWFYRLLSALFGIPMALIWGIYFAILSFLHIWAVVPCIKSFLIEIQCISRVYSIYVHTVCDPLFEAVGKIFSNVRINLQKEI
# Key:
# [1] = target: Y14D-Cav-1-YFP (phosphomimicking mutant) (human) (UniProt Q03135); experiment: co-IP
# [2] = target: T1, Y14D-Cav-1-YFP (phosphomimicking mutant); experiment: co-IP
fold binding against WT-eNOS with WT-Cav-1 [1],fold binding against WT-eNOS with WT-Cav-1 [2],Molecule
4.2 fold,–,eNOS-S1177D-CFP (phosphomimicking mutant) (from UniProt P29474-1 1-1203) (enzyme)
–,4.2 fold,"WT-eNOS-CFP, expressed in HEK cells (enzyme) MGNLKSVAQEPGPPCGLGLGLGLGLCGKQGPATPAPEPSRAPASLLPPAPEHSPPSSPLTQPPEGPKFPRVKNWEVGSITYDTLSAQAQQDGPCTPRRCLGSLVFPRKLQGRPSPGPPAPEQLLSQARDFINQYYSSIKRSGSQAHEQRLQEVEAEVAATGTYQLRESELVFGAKQAWRNAPRCVGRIQWGKLQVFDARDCRSAQEMFTYICNHIKYATNRGNLRSAITVFPQRCPGRGDFRIWNSQLVRYAGYRQQDGSVRGDPANVEITELCIQHGWTPGNGRFDVLPLLLQAPDDPPELFLLPPELVLEVPLEHPTLEWFAALGLRWYALPAVSNMLLEIGGLEFPAAPFSGWYMSTEIGTRNLCDPHRYNILEDVAVCMDLDTRTTSSLWKDKAAVEINVAVLHSYQLAKVTIVDHHAATASFMKHLENEQKARGGCPADWAWIVPPISGSLTPVFHQEMVNYFLSPAFRYQPDPWKGSAAKGTGITRKKTFKEVANAVKISASLMGTVMAKRVKATILYGSETGRAQSYAQQLGRLFRKAFDPRVLCMDEYDVVSLEHETLVLVVTSTFGNGDPPENGESFAAALMEMSGPYNSSPRPEQHKSYKIRFNSISCSDPLVSSWRRKRKESSNTDSAGALGTLRFCVFGLGSRAYPHFCAFARAVDTRLEELGGERLLQLGQGDELCGQEEAFRGWAQAAFQAACETFCVGEDAKAAARDIFSPKRSWKRQRYRLSAQAEGLQLLPGLIHVHRRKMFQATIRSVENLQSSKSTRATILVRLDTGGQEGLQYQPGDHIGVCPPNRPGLVEALLSRVEDPPAPTEPVAVEQLEKGSPGGPPPGWVRDPRLPPCTLRQALTFFLDITSPPSPQLLRLLSTLAEEPREQQELEALSQDPRRYEEWKWFRCPTLLEVLEQFPSVALPAPLLLTQLPLLQPRYYSVSSAPSTHPGEIHLTVAVLAYRTQDGLGPLHYGVCSTWLSQLKPGDPVPCFIRGAPSFRLPPDPSLPCILVGPGTGIAPFRGFWQERLHDIESKGLQPTPMTLVFGCRCSQLDHLYRDEVQNAQQRGVFGRVLTAFSREPDNPKTYVQDILRTELAAEVHRVLCLERGHMFVCGDVTMATNVLQTVQRILATEGDMELDEAGDVIGVLRDQQRYHEDIFGLTLRTQEVTSRIRTQSFSLQERQLRGAVPWAFDPPGSDTNSP"
